Values of other authors, collected in PMC6929323.

Biological target: UFD1L-NPLOC4 (Homo sapiens) (UniProt Q92890)
Assay: ITC

Sequence of UniProt Q92890 (Q92890 whole entry, chain 1 of 2): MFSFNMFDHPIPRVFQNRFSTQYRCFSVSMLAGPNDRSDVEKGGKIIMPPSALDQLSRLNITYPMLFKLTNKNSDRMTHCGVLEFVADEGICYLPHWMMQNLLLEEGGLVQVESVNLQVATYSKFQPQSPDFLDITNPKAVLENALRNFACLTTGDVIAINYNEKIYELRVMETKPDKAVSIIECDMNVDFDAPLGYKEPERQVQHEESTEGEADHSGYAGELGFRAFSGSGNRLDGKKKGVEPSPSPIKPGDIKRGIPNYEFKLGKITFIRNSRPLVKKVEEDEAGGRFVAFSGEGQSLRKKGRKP
Sequence of UniProt Q92890 (Q8TAT6 2-608, chain 2 of 2, further chain): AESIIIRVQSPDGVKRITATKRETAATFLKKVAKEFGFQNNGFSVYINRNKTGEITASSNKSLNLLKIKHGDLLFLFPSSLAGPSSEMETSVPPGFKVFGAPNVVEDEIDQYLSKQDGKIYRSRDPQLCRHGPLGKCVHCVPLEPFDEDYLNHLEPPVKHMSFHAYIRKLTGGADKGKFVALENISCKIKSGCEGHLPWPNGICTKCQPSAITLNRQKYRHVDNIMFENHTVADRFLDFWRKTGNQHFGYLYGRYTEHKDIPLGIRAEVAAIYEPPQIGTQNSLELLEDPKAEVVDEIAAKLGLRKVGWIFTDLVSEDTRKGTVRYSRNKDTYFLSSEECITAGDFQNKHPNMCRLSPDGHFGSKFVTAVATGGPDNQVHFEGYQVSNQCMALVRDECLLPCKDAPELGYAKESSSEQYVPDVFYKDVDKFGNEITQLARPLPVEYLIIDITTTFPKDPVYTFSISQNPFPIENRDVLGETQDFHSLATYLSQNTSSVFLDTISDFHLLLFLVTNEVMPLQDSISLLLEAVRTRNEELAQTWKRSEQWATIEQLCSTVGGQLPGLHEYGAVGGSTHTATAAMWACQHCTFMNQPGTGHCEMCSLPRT

With p97 (from UniProt P55072) as the substance, how does the Kd read?
The Kd was 1.7 µM.
